Data: US20210009657A1 (THEACHON, published 2021)

How the values were obtained:
[1] = biological target: T1, Aggrecan (R&D systems #1220-PG-025) (UniProt P16112 20-675); assay: ELISA, aggrecan coated on plate, detection with anti-FGFR3 antibody
T1 construct: Coated on the ELISA plate at 10 ug/mL
Procedure: ELISA plate were coated with 10 μg/mL of Aggrecan (R&D systems #1220-PG-025) in a final volume of 50μI per well and incubated overnight at room temperature. Plate were blocked with 300μI of PBS 1% BSA per well during 1 h at room temperature. Different amount of protein (0 to 100 µl ) were incubated for 1 h at room temperature. Specific detection antibody against FGFR3 from an R&D system ELISA kit (#DYC766E) was used to detect recombinant protein fixed to aggrecan as recommended by the manufacturer.

human FGF2 = biological target: T2, human FGF2 (human, UniProt P09038 143-288); assay: fixed FGF2 incubated with increasing decoy, unbound FGF2 by ELISA
T2 construct: also called hFGF2; Fibroblast Growth Factor 2
T2 sequence (P09038 143-288 limits assumed): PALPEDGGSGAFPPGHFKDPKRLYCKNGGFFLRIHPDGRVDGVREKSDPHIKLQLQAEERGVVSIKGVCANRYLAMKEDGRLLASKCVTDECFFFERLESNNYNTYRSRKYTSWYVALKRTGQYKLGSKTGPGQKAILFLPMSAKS
Procedure: Fixed amounts of human FGF2, or human FGF9 (R&D Systems) were incubated for 2 h at 37° C. with increasing doses of each recombinant protein (0 to 250 ng/ml) in PBS 1% BSA. Specific commercial ELISA kits (R&D Systems; Clinisciences) were used to quantify remaining unbound FGFs. 1000 pg/ml or 1200 pg/ml were used for FGF2 and FGF9 respectively based on the sensitivity of the corresponding ELISA kits.

T1 sequence (P16112 20-675 limits assumed): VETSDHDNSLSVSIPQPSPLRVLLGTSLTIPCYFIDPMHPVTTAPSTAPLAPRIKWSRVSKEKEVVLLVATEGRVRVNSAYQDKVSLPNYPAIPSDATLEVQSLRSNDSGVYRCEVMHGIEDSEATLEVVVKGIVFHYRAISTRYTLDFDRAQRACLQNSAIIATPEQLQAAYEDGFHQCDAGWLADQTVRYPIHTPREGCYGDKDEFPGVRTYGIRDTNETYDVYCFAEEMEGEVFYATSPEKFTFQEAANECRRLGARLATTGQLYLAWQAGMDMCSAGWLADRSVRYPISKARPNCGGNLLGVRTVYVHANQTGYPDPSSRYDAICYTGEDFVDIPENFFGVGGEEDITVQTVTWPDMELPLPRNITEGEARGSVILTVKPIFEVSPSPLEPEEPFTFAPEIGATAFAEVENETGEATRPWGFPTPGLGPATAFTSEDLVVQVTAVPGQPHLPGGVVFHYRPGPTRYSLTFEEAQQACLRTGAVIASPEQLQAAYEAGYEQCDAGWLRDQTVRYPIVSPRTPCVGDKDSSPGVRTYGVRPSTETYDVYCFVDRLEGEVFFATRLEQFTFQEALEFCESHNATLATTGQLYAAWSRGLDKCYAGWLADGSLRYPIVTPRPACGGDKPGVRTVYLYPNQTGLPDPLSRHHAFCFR

B1: FLAG-sFGFR3_Del4 (receptor)
chain: DYKDDDDKMGAPACALALCVAVAIVAGASSESLGTEQRVVGRAAEVPGPEPGQQEQLVFGSGDAVELSCPPPGGGPMGPTVWVKDGTGLVPSERVLVGPQRLQVLNASHEDSGAYSCRQRLTQRVLCHFSVRVTDAPSSGDDEDGEDEAEDTGVDTGAPYWTRPERMDKKLLAVPAANTVRFRCPAAGNPTPSISWLKNGREFRGEHRIGGIKLRHQQWSLVMESVVPSDRGNYTCVVENKFGSIRQTYTLDVLERSPHRPILQAGLPANQTAVLGSDVEFHCKVYSDAQPHIQWLKHVEVNGSKVGPDGTPYVTVLKVSLESNASMSSNT
notes: Obtained by site directed mutagenesis of sFGFR3-pFLAG-CMV3 and made in HEK 293 cells; also called Del4 variant
B1: no binding [1].

B2: FLAG-sFGFR3_Del4-LK1-LK2 (other)
chain: DYKDDDDKLVDQIPAMGAPACALALCVAVAIVAGASSESLGTEQRVVGRAAEVPGPEPGQQEQLVFGSGDAVELSCPPPGGGPMGPTVWVKDGTGLVPSERVLVGPQRLQVLNASHEDSGAYSCRQRLTQRVLCHFSVRVTDAPSSGDDEDGEDEAEDTGVDTGAPYWTRPERMDKKLLAVPAANTVRFRCPAAGNPTPSISWLKNGREFRGEHRIGGIKLRHQQWSLVMESVVPSDRGNYTCVVENKFGSIRQTYTLDVLERSPHRPILQAGLPANQTAVLGSDVEFHCKVYSDAQPHIQWLKHVEVNGSKVGPDGTPYVTVLKVSLESNASMSSNTSGSGSGSGSGSGSGSVVFPYFPRLGRYNLNFHEAQQACLDQDAVIASFDQLYDAWRGGLDWCNAGWLSDGSVQYPITKPREPCGGQNTVPGVRNYGFWDKDKSRYDVFCFTSNFNGRFYYLIHPTKLTYDEAVQACLNDGAQIAKVGQIFAAWKILGYDRCDAGWLADGSVRYPISRPRRRCSPTEAAVRFVGFPDKKHKLYGVYCFRAYN
notes: Fusion of a soluble FGFR3 fragment with the LK1 and LK2 link domains of human HPLN1; Made in HEK 293 cells; also called FP; fusion protein
B2: binds (human FGF2).
